Laboratory results from paper PMC10501992, “How Pol α-primase is targeted to replisomes to prime eukaryotic DNA replication” (Molecular Cell, 2023).

How the values were obtained:
Test in all cases: cryo-EM structure; human replisome: 150 nM CMG on fork DNA (60 nt or 15 nt 5′ flap) with 1.5-fold molar excess of AND-1, TIMELESS-TIPIN, CLASPIN and Pol α-primase; 25 mM HEPES-NaOH pH 7.6, 150 mM NaOAc, 0.5 mM TCEP, 500 μM AMP-PNP, 10 mM Mg(OAc)2, on ice; 10-30% glycerol gradient with glutaraldehyde and BS3 cross-linkers
[1] = biological target: T1, POLA1 (human Pol α catalytic subunit) (human, UniProt P09884 1-1462); conditions: both partners purified
T1 construct: POLA1, human; modelled residues 1279-1445 and 1448-1458 (CTD); stood in the assay as a subunit of m18; also called POLA1CTD; POLA1_(exo-cat)
T1 sequence: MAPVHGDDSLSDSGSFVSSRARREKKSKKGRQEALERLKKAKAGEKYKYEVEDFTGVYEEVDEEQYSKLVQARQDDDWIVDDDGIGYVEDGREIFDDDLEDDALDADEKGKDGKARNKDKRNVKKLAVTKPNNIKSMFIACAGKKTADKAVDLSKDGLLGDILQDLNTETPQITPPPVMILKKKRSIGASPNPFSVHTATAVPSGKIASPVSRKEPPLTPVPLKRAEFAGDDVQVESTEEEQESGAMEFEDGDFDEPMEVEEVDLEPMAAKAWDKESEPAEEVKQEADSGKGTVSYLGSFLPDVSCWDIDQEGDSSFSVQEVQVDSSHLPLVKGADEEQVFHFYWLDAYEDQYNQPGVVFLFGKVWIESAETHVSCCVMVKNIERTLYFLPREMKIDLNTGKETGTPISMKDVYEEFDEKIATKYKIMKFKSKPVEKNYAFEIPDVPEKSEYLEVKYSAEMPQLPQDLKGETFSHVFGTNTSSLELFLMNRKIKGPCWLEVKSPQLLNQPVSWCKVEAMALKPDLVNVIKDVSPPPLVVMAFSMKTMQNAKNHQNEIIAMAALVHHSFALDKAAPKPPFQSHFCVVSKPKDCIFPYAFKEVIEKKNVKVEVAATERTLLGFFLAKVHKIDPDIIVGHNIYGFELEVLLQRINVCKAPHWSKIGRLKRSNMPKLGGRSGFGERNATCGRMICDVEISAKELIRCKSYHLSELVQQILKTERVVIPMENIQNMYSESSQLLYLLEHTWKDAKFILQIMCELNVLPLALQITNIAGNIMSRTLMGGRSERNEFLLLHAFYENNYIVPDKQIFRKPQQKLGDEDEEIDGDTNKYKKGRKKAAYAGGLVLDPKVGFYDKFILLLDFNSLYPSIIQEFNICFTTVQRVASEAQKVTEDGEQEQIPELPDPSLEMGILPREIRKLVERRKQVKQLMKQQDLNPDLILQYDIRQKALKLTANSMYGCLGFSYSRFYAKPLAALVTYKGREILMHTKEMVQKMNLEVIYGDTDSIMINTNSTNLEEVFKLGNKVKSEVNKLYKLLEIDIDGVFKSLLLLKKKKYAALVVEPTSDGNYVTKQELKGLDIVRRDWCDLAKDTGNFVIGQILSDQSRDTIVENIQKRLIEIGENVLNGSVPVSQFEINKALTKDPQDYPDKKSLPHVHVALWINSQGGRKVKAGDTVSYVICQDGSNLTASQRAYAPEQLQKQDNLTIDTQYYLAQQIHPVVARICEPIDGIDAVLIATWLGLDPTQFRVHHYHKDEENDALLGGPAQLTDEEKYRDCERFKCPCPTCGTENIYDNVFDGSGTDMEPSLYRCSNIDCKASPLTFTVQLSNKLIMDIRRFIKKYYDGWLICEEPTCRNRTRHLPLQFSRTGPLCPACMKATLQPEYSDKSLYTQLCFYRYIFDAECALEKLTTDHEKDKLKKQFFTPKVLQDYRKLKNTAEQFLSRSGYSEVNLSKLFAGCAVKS

[2] = biological target: T2, human CMG (CDC45-MCM-GINS) replicative helicase (human, UniProt O75419 1-566; P49736 1-904; P25205 1-808; P33991 1-863; P33992 1-734; Q14566 …); conditions: both partners purified
T2 construct: CDC45, human; MCM2, human; MCM3, human; MCM4, human; MCM5, human; MCM6, human; MCM7, human; PSF1, subunit of GINS, human; PSF2, subunit of GINS, human; PSF3, subunit of GINS, human; SLD5, subunit of GINS, human; the subunits are named in the methods for the MCM3-4A form, which was made as the wild type; copies: + + + + + + + + + +

[3] = biological target: the molecule itself

binding result [1]: binds
binding result [2]: binds
B1: AND-1 (human) (natural protein)
chain: MPATRKPMRYGHTEGHTEVCFDDSGSFIVTCGSDGDVRIWEDLDDDDPKFINVGEKAYSCALKSGKLVTAVSNNTIQVHTFPEGVPDGILTRFTTNANHVVFNGDGTKIAAGSSDFLVKIVDVMDSSQQKTFRGHDAPVLSLSFDPKDIFLASASCDGSVRVWQISDQTCAISWPLLQKCNDVINAKSICRLAWQPKSGKLLAIPVEKSVKLYRRESWSHQFDLSDNFISQTLNIVTWSPCGQYLAAGSINGLIIVWNVETKDCMERVKHEKGYAICGLAWHPTCGRISYTDAEGNLGLLENVCDPSGKTSSSKVSSRVEKDYNDLFDGDDMSNAGDFLNDNAVEIPSFSKGIINDDEDDEDLMMASGRPRQRSHILEDDENSVDISMLKTGSSLLKEEEEDGQEGSIHNLPLVTSQRPFYDGPMPTPRQKPFQSGSTPLHLTHRFMVWNSIGIIRCYNDEQDNAIDVEFHDTSIHHATHLSNTLNYTIADLSHEAILLACESTDELASKLHCLHFSSWDSSKEWIIDLPQNEDIEAICLGQGWAAAATSALLLRLFTIGGVQKEVFSLAGPVVSMAGHGEQLFIVYHRGTGFDGDQCLGVQLLELGKKKKQILHGDPLPLTRKSYLAWIGFSAEGTPCYVDSEGIVRMLNRGLGNTWTPICNTREHCKGKSDHYWVVGIHENPQQLRCIPCKGSRFPPTLPRPAVAILSFKLPYCQIATEKGQMEEQFWRSVIFHNHLDYLAKNGYEYEESTKNQATKEQQELLMKMLALSCKLEREFRCVELADLMTQNAVNLAIKYASRSRKLILAQKLSELAVEKAAELTATQVEEEEEEEDFRKKLNAGYSNTATEWSQPRFRNQVEEDAEDSGEADDEEKPEIHKPGQNSFSKSTNSSDVSAKSGAVTFSSQGRVNPFKVSASSKEPAMSMNSARSTNILDNMGKSSKKSTALSRTTNNEKSPIIKPLIPKPKPKQASAASYFQKRNSQTNKTEEVKEENLKNVLSETPAICPPQNTENQRPKTGFQMWLEENRSNILSDNPDFSDEADIIKEGMIRFRVLSTEERKVWANKAKGETASEGTEAKKRKRVVDESDETENQEEKAKENLNLSKKQKPLDFSTNQKLSAFAFKQE
notes: AND-1, human (Ctf4 in budding yeast)
stoichiometry N [3]: 3
